# From the supplement of paper PMC9112550, “Optimization of the antimicrobial peptide Bac7 by deep mutational scanning” (BMC Biology, 2022)
# Tested on: Escherichia coli TOP10
# Assay: shrunken log2 fold change of peptide-encoding DNA abundance (4.5 h post-induction vs induction); higher = less antimicrobial activity (less host growth inhibition)
# Conditions: time post-induction: 4.5 h; library: site-saturation at positions 5, 18, 19, 20
# 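Note: peptides expressed intracellularly from a pBAD plasmid library in pooled LB shake-flask culture, induced with 0.3% L-arabinose, DNA abundance read by NGS, three biological replicates, DESeq2 with apeglm shrinkage.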
row,Sequence,shrunken log2 fold change
1,RRIRHRPPRLPRPRPRPMSAPRP,-0.549
2,RRIRTRPPRLPRPRPRPRAGPRP,0.41
3,RRIRVRPPRLPRPRPRPCQHPRP,-0.09
4,RRIRLRPPRLPRPRPRPYFKPRP,-1.3
5,RRIRSRPPRLPRPRPRPSNVPRP,-0.47
6,RRIRGRPPRLPRPRPRPLVPPRP,0.417
7,RRIRGRPPRLPRPRPRPICEPRP,0.396
8,RRIRSRPPRLPRPRPRPGHWPRP,0.286
9,RRIRARPPRLPRPRPRPAQLPRP,0.324
10,RRIRRRPPRLPRPRPRPKSLPRP,0.0308
11,RRIRPRPPRLPRPRPRPGDQPRP,3.33
12,RRIRSRPPRLPRPRPRPSSYPRP,-0.344
13,RRIRDRPPRLPRPRPRPNPGPRP,-0.117
14,RRIRVRPPRLPRPRPRPYTHPRP,-0.912
15,RRIRMRPPRLPRPRPRPTESPRP,0.0389
16,RRIRHRPPRLPRPRPRPLWDPRP,-0.15
17,RRIRFRPPRLPRPRPRPDGIPRP,-0.255
18,RRIRIRPPRLPRPRPRPRGFPRP,0.199
19,RRIRARPPRLPRPRPRPEISPRP,0.81
20,RRIRHRPPRLPRPRPRPTKPPRP,0.0121
21,RRIRGRPPRLPRPRPRPAQQPRP,0.57
22,RRIRCRPPRLPRPRPRPWIHPRP,-0.277
23,RRIRFRPPRLPRPRPRPMGMPRP,-0.0492
24,RRIRYRPPRLPRPRPRPYRHPRP,-1.4
25,RRIRRRPPRLPRPRPRPEMNPRP,0.406

row,Sequence,shrunken log2 fold change
1,RRIRNRPPRLPRPRPRPSCRPRP,0.0168
2,RRIRYRPPRLPRPRPRPHARPRP,-0.163
3,RRIRCRPPRLPRPRPRPTTMPRP,0.722
4,RRIRFRPPRLPRPRPRPQYAPRP,-0.862
5,RRIRCRPPRLPRPRPRPMIYPRP,-0.144
6,RRIRARPPRLPRPRPRPLLIPRP,-0.0375
7,RRIRHRPPRLPRPRPRPFCYPRP,-0.286
8,RRIRCRPPRLPRPRPRPAWRPRP,0.575
9,RRIRNRPPRLPRPRPRPIPEPRP,-0.147
10,RRIRHRPPRLPRPRPRPGMIPRP,-0.187
11,RRIRWRPPRLPRPRPRPSVRPRP,0.117
12,RRIRWRPPRLPRPRPRPDGNPRP,0.276
13,RRIRQRPPRLPRPRPRPCERPRP,-0.0133
14,RRIRLRPPRLPRPRPRPPWWPRP,0.695
15,RRIRHRPPRLPRPRPRPNEDPRP,-0.081
16,RRIRGRPPRLPRPRPRPRNAPRP,0.619
17,RRIRNRPPRLPRPRPRPKHCPRP,-0.111
18,RRIRPRPPRLPRPRPRPEQWPRP,0.0326
19,RRIRCRPPRLPRPRPRPNIDPRP,-0.539
20,RRIRYRPPRLPRPRPRPQRNPRP,-0.758
21,RRIRQRPPRLPRPRPRPEQIPRP,-0.0247
22,RRIRWRPPRLPRPRPRPGQIPRP,-0.0275
23,RRIRSRPPRLPRPRPRPGLNPRP,-0.207
24,RRIRFRPPRLPRPRPRPTYYPRP,-0.421
25,RRIRDRPPRLPRPRPRPRYVPRP,-0.0272

row,Sequence,shrunken log2 fold change
1,RRIRLRPPRLPRPRPRPYMMPRP,-0.594
2,RRIRPRPPRLPRPRPRPKFFPRP,0.0479
3,RRIRCRPPRLPRPRPRPYLHPRP,-1.18
4,RRIRFRPPRLPRPRPRPVNQPRP,-0.188
5,RRIRKRPPRLPRPRPRPIGQPRP,0.0684
6,RRIRRRPPRLPRPRPRPMSLPRP,-0.0564
7,RRIRMRPPRLPRPRPRPIFNPRP,-0.257
8,RRIRKRPPRLPRPRPRPTNWPRP,0.689
9,RRIRNRPPRLPRPRPRPQHYPRP,-0.319
10,RRIRTRPPRLPRPRPRPEVKPRP,0.174
11,RRIRWRPPRLPRPRPRPAVYPRP,-0.682
12,RRIRWRPPRLPRPRPRPACMPRP,0.164
13,RRIRHRPPRLPRPRPRPKTLPRP,-0.984
14,RRIRIRPPRLPRPRPRPNYRPRP,-0.00601
15,RRIRRRPPRLPRPRPRPYGMPRP,-0.242
16,RRIRQRPPRLPRPRPRPGLDPRP,0.255
17,RRIRPRPPRLPRPRPRPCVRPRP,0.14
18,RRIRMRPPRLPRPRPRPLWIPRP,-0.00647
19,RRIRQRPPRLPRPRPRPDLMPRP,-0.08
20,RRIRARPPRLPRPRPRPWEHPRP,-0.0255
21,RRIRIRPPRLPRPRPRPGFAPRP,0.282
22,RRIRWRPPRLPRPRPRPHRMPRP,-0.203
23,RRIRRRPPRLPRPRPRPYNYPRP,-0.501
24,RRIRFRPPRLPRPRPRPTTQPRP,0.376
25,RRIRWRPPRLPRPRPRPTCFPRP,0.0863
